This assay addresses TRAF6 (human) (UniProt Q9Y4K3). Kind of assay: cell-based or functional assay.
Sequence of UniProt Q9Y4K3 (Q9Y4K3 whole entry): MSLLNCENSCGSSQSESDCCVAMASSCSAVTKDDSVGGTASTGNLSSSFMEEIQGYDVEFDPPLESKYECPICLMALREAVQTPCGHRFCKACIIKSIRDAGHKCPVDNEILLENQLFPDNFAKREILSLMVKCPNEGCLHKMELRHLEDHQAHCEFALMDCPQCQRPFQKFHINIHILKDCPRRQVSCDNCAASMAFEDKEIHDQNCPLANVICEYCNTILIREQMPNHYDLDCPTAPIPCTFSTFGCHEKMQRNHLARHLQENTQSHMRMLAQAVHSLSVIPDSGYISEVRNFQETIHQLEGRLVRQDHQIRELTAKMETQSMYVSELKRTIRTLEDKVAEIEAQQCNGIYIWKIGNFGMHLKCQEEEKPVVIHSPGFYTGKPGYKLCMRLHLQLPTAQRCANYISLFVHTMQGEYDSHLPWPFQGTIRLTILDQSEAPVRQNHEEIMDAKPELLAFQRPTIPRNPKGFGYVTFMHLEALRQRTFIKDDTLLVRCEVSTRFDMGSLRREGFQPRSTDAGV

For “human MALT1A E316A/E806A (from UniProt Q9UDY8 1-824) (enzyme)”, the activity of MALT1 detected by biotinylated MALT1 activity-based probe (bio-MALT1-ABP) pulldown, ratio of active to total MALT1, resting Jurkat T cells is 50 fold.

In the case of “human MALT1B E795A (from UniProt Q9UDY8 2-824) (enzyme)”, the activity of MALT1 detected by biotinylated MALT1 activity-based probe (bio-MALT1-ABP) pulldown, ratio of active to total MALT1, resting Jurkat T cells worked out at 5 fold.
